Results as given in patent US20250268939A1.

Target: BAFF-R Liama IgG2b Fc Tag recombinant protein (Acro, Cat. No.: BAR-H5258) (UniProt Q96RJ3)
Experiment: flow cytometry; control T cells expressing only EGFRt incubated with BAFF-R llama IgG2b Fc protein at 10 ug/mL, detected with FITC-anti llama IgG

UniProt Q96RJ3, sequence (Q96RJ3 7-71): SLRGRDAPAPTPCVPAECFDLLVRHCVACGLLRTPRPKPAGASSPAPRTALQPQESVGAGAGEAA

positive rate: 0.65%
Substance: EGFRt (from UniProt P00533 334-668) (receptor)
